Experimental data taken from article PMC5130018 (2016).

B1: WH-biotin (peptide WH with GGGK-biotin at the carboxyl terminal) [modified: biotin on the C-terminal lysine (GGGK-biotin); biotin on the C-terminal lysine (GGGK-biotin)] / mouse Clec9a expressed on HEK-293T cells (pIRES2-EGFP-mClec9a) … (parent complex)
chain 1: WPRFHSSVFHTHGGGK
chain 2: MHAEEIYTSLQWDIPTSEASQKCQSPSKCSGAWCVVTMISCVVCMGLLATSIFLGIKFFQVSSLVLEQQERLIQQDTALVNLTQWQRKYTLEYCQALLQRSLHSGTDASTGPVLLTSPQMVPQTLDSKETGSDCSPCPHNWIQNGKSCYYVFERWEMWNISKKSCLKEGASLFQIDSKEEMEFISSIGKLKGGNKYWVGVFQDGISGSWFWEDGSSPLSDLLPAERQRSAGQICGYLKDSTLISDKCDSWKYFICEKKAFGSCI

Variants of: B1
Assay: flow cytometry on cells; parent: 49.6

Variant	response
chain 2 MHAEEIYTSLQWDIPTSEASQKCQSPSKCSGAWCVVTMISCVVCMGLLATSIFLGIKFFQVSSLVLEQQERLIQQDTALVNLTQWQRKYTLEYCQALLQRSLHSGTDASTGPVLLTSPQMVPQTLDSKETGSDCSPCPHNWIQNGKSCYYVFERWEAWNISKKSCLKEGASLFQIDSKEEMEFISSIGKLKGGNKYWVGVFQDGISGSWFWEDGSSPLSDLLPAERQRSAGQICGYLKDSTLISDKCDSWKYFICEKKAFGSCI [chain 2 M157A]	74.2 % of cells in upper-right quadrant (SA+ EGFP+)
chain 2 MHAEEIYTSLQWDIPTSEASQKCQSPSKCSGAWCVVTMISCVVCMGLLATSIFLGIKFFQVSSLVLEQQERLIQQDTALVNLTQWQRKYTLEYCQALLQRSLHSGTDASTGPVLLTSPQMVPQTLDSKETGSDCSPCPHNWIQNGKSCYYVFERWEMWNISKKSCLKEGASLFQIDSKEEMEFISSIGKLKGGNKYWVGVFQDGISGSWFWEDGSSPLSDLLPAERQRSAGQICGYLKDSTLISDKCDSWKAFICEKKAFGSCI [chain 2 Y252A]	45.4 % of cells in upper-right quadrant (SA+ EGFP+)
chain 2 MHAEEIYTSLQWDIPTSEASQKCQSPSKCSGAWCVVTMISCVVCMGLLATSIFLGIKFFQVSSLVLEQQERLIQQDTALVNLTQWQRKYTLEYCQALLQRSLHSGTDASTGPVLLTSPQMVPQTLDSKETGSDCSPCPHNWIQNGKSCYYVFEAWEMWNISKKSCLKEGASLFQIDSKEEMEFISSIGKLKGGNKYWVGVFQDGISGSWFWEDGSSPLSDLLPAERQRSAGQICGYLKDSTLISDKCDSWKYFICEKKAFGSCI [chain 2 R154A]	69.6 % of cells in upper-right quadrant (SA+ EGFP+)
chain 2 MHAEEIYTSLQWDIPTSEASQKCQSPSKCSGAWCVVTMISCVVCMGLLATSIFLGIKFFQVSSLVLEQQERLIQQDTALVNLTQWQRKYTLEYCQALLQRSLHSGTDASTGPVLLTSPQMVPQTLDSKETGSDCSPCPHNWIQNGKSCYYVFERAEMWNISKKSCLKEGASLFQIDSKEEMEFISSIGKLKGGNKYWVGVFQDGISGSWFWEDGSSPLSDLLPAERQRSAGQICGYLKDSTLISDKCDSWKYFICEKKAFGSCI [chain 2 W155A]	52.5 % of cells in upper-right quadrant (SA+ EGFP+)
chain 2 MHAEEIYTSLQWDIPTSEASQKCQSPSKCSGAWCVVTMISCVVCMGLLATSIFLGIKFFQVSSLVLEQQERLIQQDTALVNLTQWQRKYTLEYCQALLQRSLHSGTDASTGPVLLTSPQMVPQTLDSKETGSDCSPCPHNWIQNGKSCYYVFERWEMWNISKKSCLKEGASLFQIDSKEEMEFISSIGKLKGGNKYWVGVFQDGISGSWFWEDGSSPLSDLLPAERQRSAGQICGYLKDSTLISDKCASWKYFICEKKAFGSCI [chain 2 D248A]	11.3 % of cells in upper-right quadrant (SA+ EGFP+)
chain 2 MHAEEIYTSLQWDIPTSEASQKCQSPSKCSGAWCVVTMISCVVCMGLLATSIFLGIKFFQVSSLVLEQQERLIQQDTALVNLTQWQRKYTLEYCQALLQRSLHSGTDASTGPVLLTSPQMVPQTLDSKETGSDCSPCPHNWIQNGKSCYYVFERWEMWNISKKSCLKEGASLFQIDSKEEMEFISSIGKLKGGNKYWVGVFQDGISGSWFWEDGSSPLSDLLPAERQRSAGQICGYLKDSTLISDKCDSAKYFICEKKAFGSCI [chain 2 W250A]	7.85 % of cells in upper-right quadrant (SA+ EGFP+)
chain 2 MHAEEIYTSLQWDIPTSEASQKCQSPSKCSGAWCVVTMISCVVCMGLLATSIFLGIKFFQVSSLVLEQQERLIQQDTALVNLTQWQRKYTLEYCQALLQRSLHSGTDASTGPVLLTSPQMVPQTLDSKETGSDCSPCPHNWIQNGKSCYYVFERWEMWNASKKSCLKEGASLFQIDSKEEMEFISSIGKLKGGNKYWVGVFQDGISGSWFWEDGSSPLSDLLPAERQRSAGQICGYLKDSTLISDKCDSWKYFICEKKAFGSCI [chain 2 I160A]	50.6 % of cells in upper-right quadrant (SA+ EGFP+)
